Reference: PMC4942678, “A Salmonella Toxin Promotes Persister Formation through Acetylation of tRNA” (Molecular Cell, 2016)

Key:
[1] = target: the molecule itself; assay: crystal structure; T8^Y140F with Ac-CoA bound, 1.7 Å, space group P2_(1); a dimer in the asymmetric unit
[2] = target: the molecule itself; assay: SEC-MALS; size-exclusion chromatography with multi-angle laser light scattering (SEC-MALLS), in solution

Row | Protein | binding result [1] | stoichiometry N [2]
1 | TacT^Y140F (tRNA-acetylating toxin, Y140F mutant) (enzyme, also called T8^Y140F; source: purified; produced in the absence of its antitoxin A8 (E. coli expression strain BL21)) MGRVTAPEPLSAFHQVAEFVSGEAVLDDWLKQKGLKNQALGAARTFVVCKKDTKQVAGFYSLATGSVNHTEATGNLRRNMPDPIPVIILARLAVDLSFHGKGLGADLLHDAVLRCYRVAENIGVRAIMVHALTEEAKNFFIHHGFKSSQTQQRTLFLRLPQ | binds | 
2 | TacT (tRNA-acetylating toxin), wild type (enzyme, also called T8; the toxin) MGRVTAPEPLSAFHQVAEFVSGEAVLDDWLKQKGLKNQALGAARTFVVCKKDTKQVAGFYSLATGSVNHTEATGNLRRNMPDPIPVIILARLAVDLSFHGKGLGADLLHDAVLRCYRVAENIGVRAIMVHALTEEAKNFYIHHGFKSSQTQQRTLFLRLPQ |  | 2
